Measurements published in patent publication US20180194839A1 (Novartis, published 2018).
Read-outs that look alike come from different tables or passages of the source. Values belong to the binder of their own block, whether it stands above or below them.

Assays:
[1] = target: T1, human IL-17A (construct not stated) (human, UniProt Q16552 24-155, limits assumed); test: cell-based or functional assay
T1 sequence: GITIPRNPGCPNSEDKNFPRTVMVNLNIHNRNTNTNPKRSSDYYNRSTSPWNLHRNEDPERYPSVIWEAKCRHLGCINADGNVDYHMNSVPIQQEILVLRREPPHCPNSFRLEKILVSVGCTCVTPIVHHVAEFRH

[2] = target: T2, recombinant human IL-17A (SEQ ID NO: 76) (human, UniProt Q16552 24-155, limits assumed); test: cell-based or functional assay
T2 sequence: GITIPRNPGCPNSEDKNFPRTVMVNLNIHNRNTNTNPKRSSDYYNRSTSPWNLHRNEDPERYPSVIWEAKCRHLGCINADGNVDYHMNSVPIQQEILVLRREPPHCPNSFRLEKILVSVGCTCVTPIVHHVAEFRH

[3] = target: T3, recombinant human IL-17A (SEQ ID NO: 78) (human, UniProt Q16552 24-155, limits assumed); test: SPR (Biacore), captured antibody, antigen as analyte
T3 construct: homodimer; also called huIL-17A; hulL-17A
T3 sequence: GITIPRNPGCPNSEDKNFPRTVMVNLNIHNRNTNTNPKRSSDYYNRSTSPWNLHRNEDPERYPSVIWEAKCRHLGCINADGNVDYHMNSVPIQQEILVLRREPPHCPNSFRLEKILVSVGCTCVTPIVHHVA

[4] = target: T4, recombinant mouse IL-17A (SEQ ID NO: 83) (mouse, UniProt Q62386 26-158); test: cell-based or functional assay
T4 sequence: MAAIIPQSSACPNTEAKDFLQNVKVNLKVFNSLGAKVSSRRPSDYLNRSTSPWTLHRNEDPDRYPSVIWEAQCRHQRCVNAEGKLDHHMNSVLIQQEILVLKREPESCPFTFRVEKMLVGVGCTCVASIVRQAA

[5] = target: T2, recombinant human IL-17A (SEQ ID NO: 76); test: cell-based or functional assay; remark: listed apart in the source
[6] = target: T3, recombinant human IL-17A (SEQ ID NO: 78); test: SPR (Biacore), captured antibody, antigen as analyte; remark: listed apart in the source
[7] = target: T5, recombinant rat IL-17A (SEQ ID NO: 85) (rat, UniProt Q61453 18-150); test: as above
T5 construct: also called rratIL-17A; rIL-17A
T5 sequence: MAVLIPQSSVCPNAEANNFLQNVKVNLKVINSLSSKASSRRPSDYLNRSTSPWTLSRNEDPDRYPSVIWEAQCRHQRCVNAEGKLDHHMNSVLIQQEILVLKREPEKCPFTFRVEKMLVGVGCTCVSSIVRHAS

[8] = target: T6, recombinant cynomolgus IL-17A (SEQ ID NO: 79) (cynomolgus monkey, UniProt Q16552 24-155 (human entry), limits assumed); test: as above
T6 construct: also called cynoIL-17A; cyno IL-17A
T6 chain: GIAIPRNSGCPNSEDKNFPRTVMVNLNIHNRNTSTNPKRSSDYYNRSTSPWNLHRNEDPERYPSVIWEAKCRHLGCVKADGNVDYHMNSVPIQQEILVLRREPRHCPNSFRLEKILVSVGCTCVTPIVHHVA

[9] = target: T4, recombinant mouse IL-17A (SEQ ID NO: 83); test: as above
[10] = target: T7, recombinant human IL-17A/F heterodimer (human, UniProt Q16552 24-155; Q96PD4 31-163, limits assumed); test: as above
T7 construct: heterodimer of an IL-17A subunit and an IL-17F subunit; also called huIL-17A/F; rhuIL-17A/F
T7 sequence (looked up) 1: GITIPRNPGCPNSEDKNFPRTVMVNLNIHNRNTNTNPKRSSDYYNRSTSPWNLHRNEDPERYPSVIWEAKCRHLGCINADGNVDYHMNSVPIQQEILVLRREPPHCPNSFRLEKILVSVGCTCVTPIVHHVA
T7 sequence (looked up) 2: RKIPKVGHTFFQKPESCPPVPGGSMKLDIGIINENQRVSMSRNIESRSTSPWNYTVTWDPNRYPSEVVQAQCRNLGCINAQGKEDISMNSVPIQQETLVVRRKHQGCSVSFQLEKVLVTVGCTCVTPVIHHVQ

EC50, in vitro neutralization activity, T = 0 weeks [1]: 0.045 µg/mL
EC50, in vitro neutralization activity, T = 4 weeks at pH 8, 40°C (forced deamidation) [1]: 47 ng/ml
IC50, huIL-6 secretion by BJ cells; stimulus rhuIL-17A (0.5 nM) [2]: 0.64 nM
Kd [3]: 0.0176 nM
koff [3]: 7.12e-05 s⁻¹
kon [3]: 4.09e+06 M⁻¹ s⁻¹
IC50, KC secretion by CMT-93 cells; stimulus mIL-17A (0.15 nM) [4]: 20.9 nM
IC50, huGROα secretion by BJ cells; stimulus rhuIL-17A (0.5 nM) [5]: 0.4 nM
B1: XAB2 (antibody, human IgG1, kappa, V domains shown)
VH: EVQLVESGGDLVQPGGSLRLSCAASGFTFSSYWMSWVRQAPGKGLEWVANIKQDGSEKYYVDSVKGRFTISRDNAKNSLYLQMNSLRAEDTAVYYCARDRGSLYYWGQGTLVTVSS
VL: AIQLTQSPSSLSASVGDRVTITCRPSQVIISALAWYQQKPGKAPKLLIYDASSLEQGVPSRFSGSVSGTDFTLTISSLQPEDFATYYCQQFDSYPLTFGGGTKVEIKR

EC50, in vitro neutralization activity, T = 0 weeks [1]: 0.04 µg/mL
EC50, in vitro neutralization activity, T = 4 weeks at pH 8, 40°C (forced deamidation) [1]: 40 ng/ml
IC50, huIL-6 secretion by BJ cells; stimulus rhuIL-17A (0.5 nM) [2]: 0.5 nM
IC50, KC secretion by CMT-93 cells; stimulus mIL-17A (0.15 nM) [4]: < 1 nM
Kd [6]: 0.00958 nM
koff [6]: 5.01e-05 s⁻¹
kon [6]: 5.48e+06 M⁻¹ s⁻¹
Kd [7]: 0.0826 nM
koff [7]: 7.59e-05 s⁻¹
kon [7]: 905000 M⁻¹ s⁻¹
Kd [8]: 0.0349 nM
koff [8]: 4.23e-05 s⁻¹
kon [8]: 1.21e+06 M⁻¹ s⁻¹
Kd [9]: 0.174 nM
koff [9]: 0.000101 s⁻¹
kon [9]: 587000 M⁻¹ s⁻¹
Kd [10]: 0.0329 nM
koff [10]: 0.000103 s⁻¹
kon [10]: 3.37e+06 M⁻¹ s⁻¹
IC50, huGROα secretion by BJ cells; stimulus rhuIL-17A (0.5 nM) [5]: 0.42 nM
B2: XAB3 (antibody, human IgG1, kappa, V domains shown)
VH: EVQLVESGGDLVQPGGSLRLSCAASGFTFSSYWMSWVRQAPGKGLEWVANIKQDGSEKYYVDSVKGRFTISRDNAKNSLYLQMNSLRAEDTAVYYCARDRGSLYYWGQGTLVTVSS
VL: AIQLTQSPSSLSASVGDRVTITCRPSQGIYWELAWYQQKPGKAPKLLIYDASSLEQGVPSRFSGSGSGTDFTLTISSLQPEDFATYYCQQFNSYPLTFGGGTKVEIKR
notes: also called MB468 N56Q

EC50, in vitro neutralization activity, T = 0 weeks [1]: 0.045 µg/mL
EC50, in vitro neutralization activity, T = 4 weeks at pH 8, 40°C (forced deamidation) [1]: 61 ng/ml
IC50, huIL-6 secretion by BJ cells; stimulus rhuIL-17A (0.5 nM) [2]: 0.54 nM
IC50, KC secretion by CMT-93 cells; stimulus mIL-17A (0.15 nM) [4]: 7.8 nM
IC50, huGROα secretion by BJ cells; stimulus rhuIL-17A (0.5 nM) [5]: 0.46 nM
B3: XAB5 (antibody, human IgG1, kappa, V domains shown)
VH: EVQLVESGGDLVQPGGSLRLSCAASGFTFSSYWMSWVRQAPGKGLEWVANIKQDGSEKYYVDSVKGRFTISRDNAKNSLYLQMNSLRAEDTAVYYCARDRGSLYYWGQGTLVTVSS
VL: AIQLTQSPSSLSASVGDRVTITCRPSQGINWELAWYQQKPGKAPKLLIYDASSLENGVPSRFSGSGSGTDFTLTISSLQPEDFATYYCQQFNSYPLTFGGGTKVEIKR
